In patent publication US20100184837:

How the values were obtained:
[1] = target: HCV envelope glycoprotein E2 (expressed on CT26-HCV-E2 cells) (Hepatitis C virus) (UniProt P27958); assay: flow; conditions: strongest binding among rounds; 8 ug ssDNA with 10^6 cells
[2] = target: GST-E2 (HCV envelope glycoprotein E2) (Hepatitis C virus) (UniProt P27958); assay: competition; conditions: decreased from 36.7% without aptamer
Chain of GST-E2 (HCV envelope glycoprotein E2) (Hepatitis C virus) (P27958 384-746): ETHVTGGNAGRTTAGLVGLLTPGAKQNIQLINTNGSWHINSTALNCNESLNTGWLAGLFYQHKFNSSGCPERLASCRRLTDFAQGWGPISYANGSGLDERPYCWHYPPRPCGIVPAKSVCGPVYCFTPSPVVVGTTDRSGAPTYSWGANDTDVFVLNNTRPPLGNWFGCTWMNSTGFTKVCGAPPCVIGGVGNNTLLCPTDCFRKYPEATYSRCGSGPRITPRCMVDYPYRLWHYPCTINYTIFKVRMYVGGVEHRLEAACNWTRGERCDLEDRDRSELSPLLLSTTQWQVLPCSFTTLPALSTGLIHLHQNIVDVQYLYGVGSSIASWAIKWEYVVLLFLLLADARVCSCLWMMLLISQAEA

Chain of HCV envelope glycoprotein E2 (expressed on CT26-HCV-E2 cells) (Hepatitis C virus) (P27958 384-746): as above

GCGGAATTCTAATACGACTCACTATAGGGAACAGTCCGAGCCNNNNNNNNNNNNNNNNNNNNNNNNNNNNNNGGGTCAATGCGTCATA [13th round ssDNA aptamer library]
binding (% cells bound) [1]: 89
activity (% E2 binding to Huh 7.5.1 cells) [2]: 23.2
